According to paper PMC12210985:
pKd: −log10 of the molar value.

Experiments:
[1] = system: MBP-Crp-His6 (Shewanella oneidensis MR-1); experiment: MST; conditions: EMSA: 2 mM EDTA, 20 mM KCl, 0.5 mM DTT, 4% Ficoll-400, pH 8.0, 2 ug poly(dI-dC), 10 nM probe, 10 uM cAMP for Crp; MST: 1x PBS pH 7.4, 0.05% Tween-20, 25 C
[2] = system: ArcA-P (Shewanella oneidensis MR-1); experiment: MST; conditions: phosphorylated ArcA; EMSA: 2 mM EDTA, 20 mM KCl, 0.5 mM DTT, 4% Ficoll-400, pH 8.0, 2 ug poly(dI-dC), 10 nM probe, 10 uM cAMP for Crp; MST: 1x PBS pH 7.4, 0.05% Tween-20, 25 C
[3] = molecular target: T1, MBP-Crp (Shewanella oneidensis MR-1) (UniProt Q8EJ49); experiment: EMSA; conditions: EMSA: 2 mM EDTA, 20 mM KCl, 0.5 mM DTT, 4% Ficoll-400, pH 8.0, 2 ug poly(dI-dC), 10 nM probe, 10 uM cAMP for Crp; MST: 1x PBS pH 7.4, 0.05% Tween-20, 25 C
T1 sequence: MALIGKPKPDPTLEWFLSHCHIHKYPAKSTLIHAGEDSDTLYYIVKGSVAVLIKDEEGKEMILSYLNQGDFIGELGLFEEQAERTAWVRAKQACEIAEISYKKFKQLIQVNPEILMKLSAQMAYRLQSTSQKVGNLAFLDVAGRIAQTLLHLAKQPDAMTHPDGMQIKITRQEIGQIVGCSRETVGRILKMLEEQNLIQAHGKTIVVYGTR

[4] = molecular target: T2, ArcA-P (Shewanella oneidensis MR-1) (UniProt Q8EAB9); experiment: EMSA; conditions: EMSA: 2 mM EDTA, 20 mM KCl, 0.5 mM DTT, 4% Ficoll-400, pH 8.0, 2 ug poly(dI-dC), 10 nM probe, 10 uM cAMP for Crp; MST: 1x PBS pH 7.4, 0.05% Tween-20, 25 C
T2 sequence: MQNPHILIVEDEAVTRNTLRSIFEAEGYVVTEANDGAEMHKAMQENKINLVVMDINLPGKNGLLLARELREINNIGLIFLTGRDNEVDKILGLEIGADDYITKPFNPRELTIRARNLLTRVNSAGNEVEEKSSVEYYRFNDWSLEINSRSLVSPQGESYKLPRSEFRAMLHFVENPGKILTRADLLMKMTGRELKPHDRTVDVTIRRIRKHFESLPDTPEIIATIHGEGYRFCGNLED

[5] = molecular target: T2, ArcA-P (Shewanella oneidensis MR-1); experiment: MST; conditions: EMSA: 2 mM EDTA, 20 mM KCl, 0.5 mM DTT, 4% Ficoll-400, pH 8.0, 2 ug poly(dI-dC), 10 nM probe, 10 uM cAMP for Crp; MST: 1x PBS pH 7.4, 0.05% Tween-20, 25 C
[6] = molecular target: T3, MBP-Crp-His6 (Shewanella oneidensis MR-1) (UniProt Q8EJ49); experiment: MST; conditions: EMSA: 2 mM EDTA, 20 mM KCl, 0.5 mM DTT, 4% Ficoll-400, pH 8.0, 2 ug poly(dI-dC), 10 nM probe, 10 uM cAMP for Crp; MST: 1x PBS pH 7.4, 0.05% Tween-20, 25 C
T3 sequence: T1 sequence

| Substance | pKd [1] | pKd [2] | binding [3] | binding [4] | binding [5] | binding [6] |
| --- | --- | --- | --- | --- | --- | --- |
| nqr2 promoter probe (PnqrA2) | 5.69 | 6.17 |  |  |  |  |
| nqr1 promoter probe (PnqrA1) | 6.92 | 6.25 |  |  |  |  |
| AATAACAACCTCAACAAACTCATGTAAATGGCTAAGTTATACCACGGAACAGATAAGAGATAACTACTTTAGTCTAACTAAACAGGCAATTTAGCATTAAAGATATTTCAGAAACAATAAACCACACGATAAAATTTGAGCAGCAAAAAGGGGTAGTGTTCATAATTCTGTGTCATTTCAGTAAAATATTCAAAAACAGGAATGACAC (double strand) [ndh promoter probe (Pndh)] |  |  | binds | binds | binds | binds |
